From publication PMC11021511 (Nature Communications, 2024)

Columns and labels:
Assay in all cases: affinity purification with mass spectrometry; ESK1 antibody cross-linked to Protein A/G beads as bait; lysate of primary human liver tissue (0.5% IGEPAL 630, 50 mM Tris pH 8.0, 150 mM NaCl), at least 5 h at 4 °C; washes with 150 mM NaCl, 450 mM NaCl and no salt; peptides eluted with 10% acetic acid, 5 kDa filter, LC-MS2; enrichment against the MAGE-A4 antibody as control; triplicates
Conditions in all cases: one partner purified
[1] = biological target: T1, HLA-A*02:01 in complex with peptide CRYL1_(130-138) (…) (Homo sapiens, HLA-A*02:01)
T1 construct: HLA class I heavy chain, allele HLA-A*02:01, human; beta-2-microglobulin, human; The presenting allele is assigned by NetMHCpan 4.1 prediction (rank <= 2); source: peptide pulsed on T2 cells (JNFAT assay); copies: + +

[2] = biological target: T2, HLA-A*02:01 in complex with peptide USP9Y_(1674-1682) (…) (Homo sapiens, HLA-A*02:01)
T2 construct: HLA class I heavy chain, allele HLA-A*02:01, human; beta-2-microglobulin, human; The presenting allele is assigned by NetMHCpan 4.1 prediction (rank <= 2); source: peptide pulsed on T2 cells (JNFAT assay); copies: + +

[3] = biological target: T3, HLA-A*02:01 in complex with peptide SHC1_(469-477) (…) (Homo sapiens, HLA-A*02:01)
T3 construct: HLA class I heavy chain, allele HLA-A*02:01, human; beta-2-microglobulin, human; The presenting allele is assigned by NetMHCpan 4.1 prediction (rank <= 2); source: peptide pulsed on T2 cells (JNFAT assay); copies: + +

[4] = biological target: T4, HLA-A*02:01 in complex with peptide MAF_(116-124) (…) (Homo sapiens, HLA-A*02:01)
T4 construct: HLA class I heavy chain, allele HLA-A*02:01, human; beta-2-microglobulin, human; The presenting allele is assigned by NetMHCpan 4.1 prediction (rank <= 2); source: peptide pulsed on T2 cells (JNFAT assay); copies: + +

[5] = biological target: T5, HLA-A*02:01 in complex with peptide ALDOA_(216-224) (…) (Homo sapiens, HLA-A*02:01)
T5 construct: HLA class I heavy chain, allele HLA-A*02:01, human; beta-2-microglobulin, human; The presenting allele is assigned by NetMHCpan 4.1 prediction (rank <= 2); source: peptide pulsed on T2 cells (JNFAT assay); copies: + +

[6] = biological target: T6, HLA-A*02:01 in complex with peptide RL5_(117-125) (…) (Homo sapiens, HLA-A*02:01)
T6 construct: HLA class I heavy chain, allele HLA-A*02:01, human; beta-2-microglobulin, human; The presenting allele is assigned by NetMHCpan 4.1 prediction (rank <= 2); source: peptide pulsed on T2 cells (JNFAT assay); copies: + +

[7] = biological target: T7, HLA-A*02:01 in complex with peptide PLG_(92-100) (…) (Homo sapiens, HLA-A*02:01)
T7 construct: HLA class I heavy chain, allele HLA-A*02:01, human; beta-2-microglobulin, human; Plasminogen, human, residues 92-100; The presenting allele is assigned by NetMHCpan 4.1 prediction (rank <= 2); source: peptide pulsed on T2 cells (JNFAT assay); copies: + +

[8] = biological target: T8, HLA-A*02:01 in complex with peptide SF3B4_(78-86) (…) (Homo sapiens, HLA-A*02:01)
T8 construct: HLA class I heavy chain, allele HLA-A*02:01, human; beta-2-microglobulin, human; Splicing factor 3B subunit 4, human, residues 78-86; The presenting allele is assigned by NetMHCpan 4.1 prediction (rank <= 2); source: peptide pulsed on T2 cells (JNFAT assay); copies: + +

[9] = biological target: T9, HLA-A*02:01 in complex with peptide RBM4B_(59-67) (…) (Homo sapiens, HLA-A*02:01)
T9 construct: HLA class I heavy chain, allele HLA-A*02:01, human; beta-2-microglobulin, human; The presenting allele is assigned by NetMHCpan 4.1 prediction (rank <= 2); also called RMB4B_(59-67); source: peptide pulsed on T2 cells (JNFAT assay); copies: + +

[10] = biological target: T10, HLA-A*02:01 in complex with peptide SET_(150-158) (…) (Homo sapiens, HLA-A*02:01)
T10 construct: HLA class I heavy chain, allele HLA-A*02:01, human; beta-2-microglobulin, human; The presenting allele is assigned by NetMHCpan 4.1 prediction (rank <= 2); source: peptide pulsed on T2 cells (JNFAT assay); copies: + +

[11] = biological target: T11, HLA-A*02:01 in complex with peptide ILF2_(127-135) (…) (Homo sapiens, HLA-A*02:01)
T11 construct: HLA class I heavy chain, allele HLA-A*02:01, human; beta-2-microglobulin, human; The presenting allele is assigned by NetMHCpan 4.1 prediction (rank <= 2); source: peptide pulsed on T2 cells (JNFAT assay); copies: + +

[12] = biological target: T12, HLA-A*02:01 in complex with peptide ARHGEF26_(863-871) (…) (Homo sapiens, HLA-A*02:01)
T12 construct: HLA class I heavy chain, allele HLA-A*02:01, human; beta-2-microglobulin, human; The presenting allele is assigned by NetMHCpan 4.1 prediction (rank <= 2); source: peptide pulsed on T2 cells (JNFAT assay); copies: + +

[13] = biological target: T13, HLA-A*02:01 in complex with peptide MSMO1_(164-172) (…) (Homo sapiens, HLA-A*02:01)
T13 construct: HLA class I heavy chain, allele HLA-A*02:01, human; beta-2-microglobulin, human; The presenting allele is assigned by NetMHCpan 4.1 prediction (rank <= 2); source: peptide pulsed on T2 cells (JNFAT assay); copies: + +

[14] = biological target: T14, HLA-A*02:01 in complex with peptide CYP2C8_(59-67) (…) (Homo sapiens, HLA-A*02:01)
T14 construct: HLA class I heavy chain, allele HLA-A*02:01, human; beta-2-microglobulin, human; Cytochrome P450 2C8, human, residues 59-67; The presenting allele is assigned by NetMHCpan 4.1 prediction (rank <= 2); source: peptide pulsed on T2 cells (JNFAT assay); copies: + +

[15] = biological target: T15, HLA-A*02:01 in complex with peptide HNRNPA1_(15-23) (…) (Homo sapiens, HLA-A*02:01)
T15 construct: HLA class I heavy chain, allele HLA-A*02:01, human; beta-2-microglobulin, human; Heterogeneous nuclear ribonucleoprotein A1, human, residues 15-23; The presenting allele is assigned by NetMHCpan 4.1 prediction (rank <= 2; printed rank 1.625); source: peptide pulsed on T2 cells (JNFAT assay); copies: + +

Measured: binding result

B1: ESK1 antibody (antibody, V domains shown)
VH: QMQLVQSGAEVKEPGESLRISCKGSGYSFTNFWISWVRQMPGKGLEWMGRVDPGYSYSTYSPSFQGHVTISADKSTSTAYLQWNSLKASDTAMYYCARVQYSGYYDWFDPWGQGTLVTVSS
VL: not shown
notes: the constant region of the bait antibody is not described for ESK1
binds: [1] | [2] | [3] | [4] | [5] | [6] | [7] | [8] | [9] | [10] | [11] | [12] | [13] | [14] | [15]
